Test results: publication PMC7344962 (Antibodies, 2020)
Substitutions are numbered along the chain they refer to. “And” between values parts separate entries of the source, which are not always exact repeats. Equal values may be shown once.

B1: scFv S1A0 (scFv, V domains shown)
VH: QVQLQQSGAELVRPGVSVKISCKGSGYTFTDYGMHWVKQSHAKSLEWIGIISTYSGDASYNQKFKGKATMTVDKSSSTAYMELARLTSEDSAIYYCARSSTWYYFDYWGQGTTLTVSS
VL: DIQVTQTTSSLSASLGDRVTISCRASQDISNYLNWYQQKPDGTVKLLIYYTSRLHSGVPSRFSGSGSGTDYSLTISNLEQEDIATYFCQQGNTLPYTFGGGTKLEIK
notes: VH A: wild-type heavy variable domain of the murine monoclonal IgG2a antibody 4F11E12 (anti-SAG1); the antibody is also in PDB 1YNT; (Gly4Ser)3 peptide linker; VL 0: wild-type light variable domain of the murine monoclonal IgG2a antibody 4F11E12 (anti-SAG1); VH-linker-VL orientation; also called wild-type scFv; WT scFv; source: E. coli HB2151 periplasm, purified (HisTrap HP); not shown: …
B2: scFv S1A4 (scFv, V domains shown)
VH: B1 VH
VL: B1 VL with V4M, T8P, Q80P, F87Y
notes: VH A: as the VH of m1 (wild-type VH of 4F11E12); (Gly4Ser)3 peptide linker; VL 4: as VL 0 of m1 with the stated changes; numbers count on: IMGT numbering; VH-linker-VL orientation; source: E. coli HB2151 periplasm; periplasmic extract loaded on HiScreen Capto L, purified; not shown: Gly3AlaSerHis6, C-terminal, kept
B3: scFv S1C4 (scFv, V domains shown)
VH: B1 VH with S40R, H41P, A42G, K43H, S44G
VL: B1 VL with V4M, T8P, Q80P, F87Y
notes: VH C: as VH A of m1 with only the cluster II substitutions (C-C' loop); numbers count on: IMGT numbering; (Gly4Ser)3 peptide linker; VL 4: as VL 0 of m1 with the stated changes; VH-linker-VL orientation; source: E. coli HB2151 periplasm; periplasmic extract loaded on HiScreen Capto L, purified; not shown: Gly3AlaSerHis6, C-terminal, kept
B4: scFv S1B4 (scFv, V domains shown)
VH: B1 VH with V16T, G24A, E82Q, A84S, R85S, I93V, T113L, L114V, S118A
VL: B1 VL with V4M, T8P, Q80P, F87Y
notes: VH B: as VH A of m1 with only the cluster III substitutions; (Gly4Ser)3 peptide linker; VL 4: as VL 0 of m1 with the stated changes; numbers count on: IMGT numbering; VH-linker-VL orientation; source: E. coli HB2151 periplasm; periplasmic extract loaded on HiScreen Capto L, purified; not shown: Gly3AlaSerHis6, C-terminal, kept
B5: scFv S1D4 (scFv, V domains shown)
VH: QVQLQQSGAELVRPGTSVKISCKASGYTFTDYGMHWVKQRPGHGLEWIGIISTYSGDASYNQKFKGKATMTVDKSSSTAYMQLSSLTSEDSAVYYCARSSTWYYFDYWGQGTLVTVSA
VL: B1 VL with V4M, T8P, Q80P, F87Y
notes: VH D: as VH A of m1 with the cluster II and cluster III substitutions (VH Z without cluster I); numbers count on: IMGT numbering; (Gly4Ser)3 peptide linker; VL 4: as VL 0 of m1 with the stated changes; VH-linker-VL orientation; source: E. coli HB2151 periplasm; periplasmic extract loaded on HiScreen Capto L, purified; not shown: Gly3AlaSerHis6, C-terminal, kept

Each binder was assayed against T1, major surface antigen 1 (SAG1) of Toxoplasma gondii (Toxoplasma gondii, strain , UniProt P13664) (assay: SPR; SAG1 covalently immobilised (1000 RU, EDC/NHS) on a CM5S chip; T200, 25 °C, HBS-EP+; single cycle kinetics with scFv at 600-200-66-22-7.5 nM, 50 µL/min; Langmuir 1:1 then two-state fitting model, similar Kd values in both). Settings: both partners purified.
T1 construct: major surface antigen 1 (SAG1) of Toxoplasma gondii; SAG1 in complex with the parent antibody is in PDB 1YNT (cited); also called antigen SAG1
T1 sequence (P13664 48-336): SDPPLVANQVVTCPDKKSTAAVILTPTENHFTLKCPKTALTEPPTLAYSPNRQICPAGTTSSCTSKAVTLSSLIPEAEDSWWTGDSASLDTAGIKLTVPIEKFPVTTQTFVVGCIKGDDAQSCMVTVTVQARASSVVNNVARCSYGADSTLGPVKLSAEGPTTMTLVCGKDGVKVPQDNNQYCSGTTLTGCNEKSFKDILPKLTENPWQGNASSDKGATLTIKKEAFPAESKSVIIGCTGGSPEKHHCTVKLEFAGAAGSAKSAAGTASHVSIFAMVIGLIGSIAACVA

Binder | Kd
B1 | ~200 nM
B2 | ~200 nM
B3 | ~200 nM and < 100 nM
B4 | ~200 nM
B5 | ~200 nM
